These results are taken from paper PMC11314421.

The data set concerns the target ΔNCL (DelNucleolin) (UniProt P19338 284-710, del1-283). The experiment in a line: SPR.

Chain of ΔNCL (DelNucleolin) (P19338 284-710, stated change not applied): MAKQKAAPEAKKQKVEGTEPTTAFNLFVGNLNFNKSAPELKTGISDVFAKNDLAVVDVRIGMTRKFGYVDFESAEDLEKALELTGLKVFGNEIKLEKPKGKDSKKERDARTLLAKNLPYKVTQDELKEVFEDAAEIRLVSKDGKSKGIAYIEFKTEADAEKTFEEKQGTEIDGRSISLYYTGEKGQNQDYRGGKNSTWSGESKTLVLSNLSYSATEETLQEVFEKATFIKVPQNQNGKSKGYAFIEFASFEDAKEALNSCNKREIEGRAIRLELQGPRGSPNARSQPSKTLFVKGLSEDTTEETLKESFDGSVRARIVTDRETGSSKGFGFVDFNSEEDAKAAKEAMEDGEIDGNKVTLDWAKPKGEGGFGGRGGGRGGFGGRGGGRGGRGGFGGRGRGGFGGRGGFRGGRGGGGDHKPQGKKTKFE

B1: Q2 (biotinylated, SPR) (structured_RNA)
RNA: UUUUUCCUGGAAUUUGGAGGGAUGGGAGGAGGGGGUGGGGCUUACUUGUUGUAGCUU
For the molecule B1, the equilibrium dissociation constant (Kd) is 4 nM.

B2: Q3 (biotinylated, SPR) (structured_RNA)
RNA: CUCAAGCGGUGCUUGAAGGGGAGGGAAAGCGGGAAAGCGGGCAACCACUUUUCCCUAGC
Molecule B2 came in with a Kd of 15 nM.
